Assay results published in patent US20220235118A1 (IMMUNOME, published 2022).

Columns and labels:
[1] = biological target: Spike protein D614G (SARS-CoV-2/human/Germany/BavPat 1/2020) on pseudovirus or live virus (SARS-CoV-2, UniProt P0DTC2 14-1273); experiment: cell-based or functional assay
[2] = biological target: Spike protein of the U.K. (B.1.1.7, Alpha) variant on pseudovirus or live virus (SARS-CoV-2, UniProt P0DTC2 14-1273); experiment: cell-based or functional assay
[3] = biological target: T1, SARS-CoV-2 Spike S1 domain D614G (SARS-CoV-2, UniProt P0DTC2 16-685); experiment: HTRF, soluble S1 construct
T1 construct: domain: S1

[4] = biological target: T2, SARS-CoV-2 Spike S1 domain A222S, D614G (SARS-CoV-2, UniProt P0DTC2 16-685); experiment: HTRF, soluble S1 construct
T2 construct: domain: S1; also called Spanish (A222S, D614G)

[5] = biological target: T3, SARS-CoV-2 Spike S1 domain K417N, E484K, N501Y, D614G (SARS-CoV-2, UniProt P0DTC2 16-685); experiment: HTRF, soluble S1 construct
T3 construct: domain: S1; also called S. African (K417N, E484K, N501Y, D614G); B.1.351

[6] = biological target: T4, SARS-CoV-2 Spike S1 domain ΔHV69/70, N501Y, D614G (SARS-CoV-2, UniProt P0DTC2 16-685); experiment: HTRF, soluble S1 construct
T4 construct: domain: S1; also called U.K. partial (ΔHV69/70, N501Y D614G)

[7] = biological target: T5, SARS-CoV-2 Spike S1 domain ΔHV69/70, ΔY144, N501Y, A570D, D614G, P681H (SARS-CoV-2, UniProt P0DTC2 16-685); experiment: HTRF, soluble S1 construct
T5 construct: domain: S1; also called U.K. (B.1.1.7); DHV69/70, DY144, N501Y, A570D, D614G, P681H

[8] = biological target: T6, SARS-CoV-2 Spike S1 domain ΔHV69/70, Y453F, D614G (SARS-CoV-2, UniProt P0DTC2 16-685); experiment: HTRF, soluble S1 construct
T6 construct: domain: S1; also called Denmark (ΔHV69/70, Y453F, D614G); DHV69/70, Y453F, D614G

[9] = biological target: T7, SARS-CoV-2 Spike RBD N439K (SARS-CoV-2, UniProt P0DTC2 319-541); experiment: HTRF, soluble RBD construct
T7 construct: domain: RBD

[10] = biological target: T8, SARS-CoV-2 Spike RBD E406Q (SARS-CoV-2, UniProt P0DTC2 319-541); experiment: HTRF, soluble RBD construct
T8 construct: domain: RBD

[11] = biological target: T9, SARS-CoV-2 Spike RBD K417N (SARS-CoV-2, UniProt P0DTC2 319-541); experiment: HTRF, soluble RBD construct
T9 construct: domain: RBD

[12] = biological target: T10, SARS-CoV-2 Spike RBD N501Y (SARS-CoV-2, UniProt P0DTC2 319-541); experiment: HTRF, soluble RBD construct
T10 construct: domain: RBD

[13] = biological target: T11, SARS-CoV-2 Spike RBD Y453F (SARS-CoV-2, UniProt P0DTC2 319-541); experiment: HTRF, soluble RBD construct
T11 construct: domain: RBD

[14] = biological target: T12, SARS-CoV-2 Spike RBD A352S (SARS-CoV-2, UniProt P0DTC2 319-541); experiment: HTRF, soluble RBD construct
T12 construct: domain: RBD

[15] = biological target: T13, SARS-CoV-2 Spike RBD A475V (SARS-CoV-2, UniProt P0DTC2 319-541); experiment: HTRF, soluble RBD construct
T13 construct: domain: RBD

[16] = biological target: T7, SARS-CoV-2 Spike RBD N439K; experiment: HTRF, soluble RBD construct; remark: listed apart in the source
[17] = biological target: T8, SARS-CoV-2 Spike RBD E406Q; experiment: HTRF, soluble RBD construct; remark: listed apart in the source
[18] = biological target: T9, SARS-CoV-2 Spike RBD K417N; experiment: HTRF, soluble RBD construct; remark: listed apart in the source
[19] = biological target: T10, SARS-CoV-2 Spike RBD N501Y; experiment: HTRF, soluble RBD construct; remark: listed apart in the source
[20] = biological target: T11, SARS-CoV-2 Spike RBD Y453F; experiment: HTRF, soluble RBD construct; remark: listed apart in the source
[21] = biological target: T12, SARS-CoV-2 Spike RBD A352S; experiment: HTRF, soluble RBD construct; remark: listed apart in the source
[22] = biological target: T13, SARS-CoV-2 Spike RBD A475V; experiment: HTRF, soluble RBD construct; remark: listed apart in the source
[23] = biological target: T14, SARS-CoV-2 Spike RBD E484Q (SARS-CoV-2, UniProt P0DTC2 319-541); experiment: HTRF, soluble RBD construct
T14 construct: domain: RBD

[24] = biological target: T15, SARS-CoV-2 Spike RBD E484K (SARS-CoV-2, UniProt P0DTC2 319-541); experiment: HTRF, soluble RBD construct
T15 construct: domain: RBD

[25] = biological target: T16, SARS-CoV-2 Spike RBD L452R (SARS-CoV-2, UniProt P0DTC2 319-541); experiment: HTRF, soluble RBD construct
T16 construct: domain: RBD

[26] = biological target: T17, SARS-CoV-2 Spike RBD K444R (SARS-CoV-2, UniProt P0DTC2 319-541); experiment: HTRF, soluble RBD construct
T17 construct: domain: RBD

[27] = biological target: T18, SARS-CoV-2 Spike RBD F486S (SARS-CoV-2, UniProt P0DTC2 319-541); experiment: HTRF, soluble RBD construct
T18 construct: domain: RBD

B1: PR193_00018 (antibody, V domains shown)
VH: EVQLVESGGGLVQPGGSLRLSCSASGFTFSSFWMSWVRQAPGKGLEWVATIREDGSEKYYVDSVKGRFSISRDNAKNSLYLQMNSLRAEDTAVYYCARSKWLRGSFDYWGQGTLVTVSS
VL: NFMLTQPHSVSESPGKTVTISCTRRSGSIASNYVQWYQQRPGSAPTTVIYEDNQRPSGVPDRFSGSIDSSSNSASLTISGLQTEDEADYYCQSYDSSNPPGASWVFGGGTKLTVL
notes: also called IMM20184; IMM200184
IC50, neutralization of live virus in a virus internalization assay [1]: 33.8 nM | IC80, neutralization of live virus in a virus internalization assay [1]: 126 nM | IC90, neutralization of live virus in a virus internalization assay [1]: 236 nM | IC50, neutralization of live virus in a virus internalization assay [2]: 43.3 nM | IC80, neutralization of live virus in a virus internalization assay [2]: > 394 nM | IC90, neutralization of live virus in a virus internalization assay [2]: > 394 nM | EC50 [3]: 0.0397 nM | EC50 [4]: 0.0269 nM | EC50 [5]: 0.0267 nM | EC50 [6]: 0.0143 nM | EC50 [7]: 0.0455 nM | EC50 [8]: 0.0316 nM | fold over background [9]: 4.43 fold over background | fold over background [10]: 6.58 fold over background | fold over background [11]: 3.64 fold over background | fold over background [12]: 4.92 fold over background | fold over background [13]: 4.74 fold over background | fold over background [14]: 4.62 fold over background | fold over background [15]: 4.42 fold over background | EC50 [16]: 0.051 nM | EC50 [17]: 0.0261 nM | EC50 [18]: 0.0437 nM | EC50 [19]: 0.0398 nM | EC50 [20]: 0.0494 nM | EC50 [21]: 0.0263 nM | EC50 [22]: 0.0279 nM | EC50 [23]: 0.0216 nM | EC50 [24]: 0.0205 nM | EC50 [25]: 0.0436 nM | EC50 [26]: 0.0194 nM | EC50 [27]: 0.0221 nM

B2: PR194_00232 (antibody, V domains shown)
VH: EVQLVESGGGLVQPGGSLRLSCSASGFTVSSNYMSWVRQAPRKGLEWVSVIYAGGSTFYADSVKGRFTISRDNSKNTLLLQMNSLRAEDTAVYYCARDRGGYLDYWGQGTLVTVSS
VL: DIQMTQSPSSLSASVGDRVTITCRASQGISNYLAWYQQKPGKVPKLLIYAASTLQSGVPSRFSGSGSGTDFTLTISSLQPEDVATYYCQKYNSAPGLTFGGGTKVEIK
notes: also called IMM20190; PR194_00190
IC50, neutralization of live virus in a virus internalization assay [1]: 0.35 nM | IC80, neutralization of live virus in a virus internalization assay [1]: 1.43 nM | IC90, neutralization of live virus in a virus internalization assay [1]: 3.06 nM | IC50, neutralization of live virus in a virus internalization assay [2]: 2.66 nM | IC80, neutralization of live virus in a virus internalization assay [2]: 13.7 nM | IC90, neutralization of live virus in a virus internalization assay [2]: > 394 nM | EC50 [3]: 0.0627 nM | EC50 [4]: 0.0491 nM | EC50 [5]: 0.23 nM | EC50 [6]: 0.396 nM | EC50 [7]: > 0.5 nM | EC50 [8]: 0.0472 nM | fold over background [9]: 5.95 fold over background | fold over background [10]: 8.81 fold over background | fold over background [11]: 2.25 fold over background | fold over background [12]: 4.3 fold over background | fold over background [13]: 5.94 fold over background | fold over background [14]: 6.75 fold over background | fold over background [15]: 7.47 fold over background | EC50 [16]: 0.0689 nM | EC50 [17]: 0.0677 nM | EC50 [18]: > 0.5 nM | EC50 [19]: 0.279 nM | EC50 [20]: 0.0646 nM | EC50 [21]: 0.0219 nM | EC50 [22]: 0.0724 nM | EC50 [23]: 0.0524 nM | EC50 [24]: 0.0334 nM | EC50 [25]: 0.0318 nM | EC50 [26]: 0.0258 nM | EC50 [27]: 0.0334 nM

B3: PR200_00622 (antibody, V domains shown)
VH: QVQLVESGGGVVQPGRSLRLSCTASGFTFSTYGMHWVRQAPGKGLEWVAVISYDGSSKHYAESVKGRFTISRDNSNNTLYLQMNRLRAEDTAVYYCARDGQPPGWGNYFDYWGQGTLVTVAS
VL: SYVLTQPPSVSVAPGKTARITCGGNGIGSKSVYWYQQKPGQAPEVVVYDDSDRPSGIPERFSGSNSGNTATLTISRVEAGDEADYYCQVWDSSSDPWVFGGGTKLTVL
notes: also called IMM20253; PR200_00253
IC50, neutralization of live virus in a virus internalization assay [1]: 39.4 nM | IC80, neutralization of live virus in a virus internalization assay [1]: 151 nM | IC90, neutralization of live virus in a virus internalization assay [1]: 289 nM | IC50, neutralization of live virus in a virus internalization assay [2]: 1.38 nM | IC80, neutralization of live virus in a virus internalization assay [2]: 61.1 nM | IC90, neutralization of live virus in a virus internalization assay [2]: 219 nM | EC50 [3]: 0.0624 nM | EC50 [4]: 0.0449 nM | EC50 [5]: 0.0248 nM | EC50 [6]: 0.0216 nM | EC50 [7]: 0.0624 nM | EC50 [8]: 0.0664 nM | fold over background [9]: 5.05 fold over background | fold over background [10]: 7.6 fold over background | fold over background [11]: 4.68 fold over background | fold over background [12]: 5.11 fold over background | fold over background [13]: 4.67 fold over background | fold over background [14]: 5.14 fold over background | fold over background [15]: 5.22 fold over background | EC50 [16]: 0.0534 nM | EC50 [17]: 0.0406 nM | EC50 [18]: 0.0674 nM | EC50 [19]: 0.0585 nM | EC50 [20]: 0.0626 nM | EC50 [21]: 0.0317 nM | EC50 [22]: 0.033 nM | EC50 [23]: 0.0238 nM | EC50 [24]: 0.0316 nM | EC50 [25]: 0.034 nM | EC50 [26]: 0.0261 nM | EC50 [27]: 0.0259 nM
